Patent US8283162 (AbbVie / Abbott, dated 2012)
Bridges are numbered along the chain shown (N, C = ends). Where no end group is shown, it is not given here.

T1: Alexa-488 labeled PIVKAII Gla domain peptide (13-27) (disulfide 5-10; also: Alexa Fluor 488 label, site not given here)
T1 construct: also called Alexa488-PIVKAII peptide (13-27 cyc); Alexa488-PIVKA-II (13-27)
T1 peptide: LERECVEETCSYEEA

B1: monoclonal antibody 3C10 (antibody, V domains shown)
VH: EVQLVESGGDLVKPGGSLKLSCAASGFTFSSYGMSWVRQTPDKRLEWVATISRGGSSTYYPDSVKGRFTISRDNAKNNLYLQMSSLKSEDTAMYYCASLNYGNFFDYWGQGTTLTVSS
VL: DVVMTQTPLSLPVSLGDQASISCRSSQSLVHSNGNTYLHWYLQKPGQSPKLLIYKVSNRFSGVPDRFSGSGSGTDFTLKISRVEAEDLGVYFCSQNRHVPPTFGGGTKLEIKR

Molecular target: T1, Alexa-488 labeled PIVKAII Gla domain …
Test: fluorescence quenching titration (FRET): 0.05 nM Alexa488 PIVKAII peptide (13-27), BHQ-labelled mAb 3C10 varied, quenching against free antibody binding sites, simple binding model

Row | Kd [nM] | Binder
1 | 0.1 | B1

molecular target: B1; test: FCS competition: 2 nM Alexa488-PIVKAII (13-27) premixed with 10 nM mAb 3C10, analog peptide added, overnight; D of the tracer; negative control 47±4 (no displacement), positive control 174±10

Row | Apparent Diffusion Coefficient (D) [um^2/sec] | Binder
2 | 49 | LERECKEEQCSFEEA (Synthetic 15-mer homologous to PIVKA-II 13-27, with plain Glu; also called PIVKAII Gla domain (13-27) analog) [Gla domain Factor VII peptide (sequence 13)]
3 | 50 | LERECIEELCNKEEA (Synthetic 15-mer homologous to PIVKA-II 13-27, with plain Glu; also called PIVKAII Gla domain (13-27) analog) [Gla domain Protein S peptide (sequence 15)]
4 | 48 | LERECMEEKCSFEEA (Synthetic 15-mer homologous to PIVKA-II 13-27, with plain Glu; also called PIVKAII Gla domain (13-27) analog) [Gla domain Factor IX peptide (sequence 11)]
5 | 51 | LEKECYEEICVYEEA (Synthetic 15-mer homologous to PIVKA-II 13-27, with plain Glu; also called PIVKAII Gla domain (13-27) analog) [Gla domain Protein Z peptide (sequence 16)]
6 | 53 | LERECIEEICDFEEA (Synthetic 15-mer homologous to PIVKA-II 13-27, with plain Glu; also called PIVKAII Gla domain (13-27) analog) [Gla domain Protein C peptide (sequence 14)]
7 | 52 | LERECMEETCSYEEA (Synthetic 15-mer homologous to PIVKA-II 13-27, with plain Glu; also called PIVKAII Gla domain (13-27) analog) [Gla domain Factor X peptide (sequence 12)]
